System: c1ccc(-c2ccccc2)cc1
Assay: purified protein
Details: apparent, air-saturated 50 mM MES pH 6.0, NADH 123 µM, BphG B356 and BphF LB400 as electron transfer partners, Fe(II) added, well coupled
Source text: O2 consumption, Clark-type oxygen electrode on BPDOB356 (biphenyl dioxygenase, oxygenase component BphAE)

Row | Substance | Km | kcat [s⁻¹] | kcat/Km [M⁻¹ s⁻¹]
1 | BPDOB356 (biphenyl dioxygenase, oxygenase component BphAE) (Comamonas testosteroni; M231A) | 9.4 (1.9) µM | 2.1 | 200000
2 | BPDOB356 (biphenyl dioxygenase, oxygenase component BphAE) (Comamonas testosteroni; M231T) | 11.1 (3.1) µM | 2.9 | 300000

— publication PMC3536784, “Structural Characterization of Pandoraea pnomenusa B-356 Biphenyl Dioxygenase Reveals Features of Potent Polychlorinated Biphenyl-Degrading Enzymes” (PLoS ONE, 2013)
